Data on 21 sequences can be found in the DeepSol protein solubility set.

The data set in a line: soluble on expression in E. coli; label from the status in PepcDB or PDB records.
As for “MVKSVGCKNLSLDVKKAIVAGFEQGTPTKMLALQIQRSPSTIWKVIKKYQTEKSVALRISPGRPRVTTHRMDRNILRSAREDPHRTATDIQTIISSPNEPVPSKRTVRRRLQQAGLHGRKPVKKPFISKKNRMARVAWAKAHLRWGRQEWAKHIWSDESKFNLFGSDGNSWVRRPVGSRYSPKYQCPTVKHGGGSVMVWGCFTSTSMGPLRRIQSIMDRFQYENILETTMRPWALQNVGRGFVFQQDNDPKHTSLHVRSWFQPCRVHLLDWPSQSPDLNPIEHLWEELERRLGGIRASNADAKFNQLENAWKAIPMSVIHKLIDSMPRRCLAVIDANGYATKY”, the “soluble on expression in E. coli” value is “not soluble”.

In the case of “MDIETIVNEFETRAGTLLRYYTGLLERSKVQPCCFKLYNDPFDMVYVMMNSKLFSHVYIKDCKVRQSFELASPKHTEGLIRSIEGHYVGYELHDGKQLSISDMMASQLFEDEYFMYGLQTYAESNNSDVFKCLENGFDTDTLEGIQSSNTDVIANIEMLYQLATGINEPVPELVEGLKLVTEFVQDENATQEDYKALERKLNDLKASYYSLSKLAAALEHHHHHH”, the “soluble on expression in E. coli” value is “soluble”.

Take “MSNLEIKQGENKFYIGDDENHALAEITYRFVDNNEINIDHTGVSDELGGQGVGKKLVKAVVEHARENHLKIIASCSFAKHMLEKEDSYQDVYLG”: the “soluble on expression in E. coli” value was “soluble”.

On to “MSLNTLKEVNKIIQYLNNIHNEPIGNQARVLCGKDAAKHLFLVASGADSLSIGEYEILSQIRSTIDMFKKLGFSGKYLQIFFERAIKVGRKVREETSISKGKVGIYSLAIDEAKKRFNDFYDRRILVIGAGEMAQKITSMLHNEGAKDVTIMNRTIEKAKQLALKFGYNYEKLDLDKLGNFDVAFISIYHENLRLENKWNTLIVDITVPPLFTGNNVITLEELERISNLNFKAREEELAKINKLVEDGINELLYDYKKEIYTEFMSKIMKRIETIRENEILRAYKELEKEGHHHHHH”, for which the “soluble on expression in E. coli” value was “not soluble”.

Regarding “MSLGNKRVLITGATGFIGGYLVDEALRRQYEVWAAVRPHSDRSRLTDSRIRFVEIDYRDPSDIARLADKIAPEGESAWHLVIHNAGITKARDTSLFREINAEQTKRFLIGLQGAKHCPERFVLMSSMGSYGAPPDDCQPLSSSSVPKPTTAYGESKLLAEQYVQTFVTIPYTIIQPTGVYGPHDQDYLMAIRSVDKGFDFSTGNTPQTLTFIYAEDLASAVFIAAEHPDAAGQKYIVSDGKEYTDIEFGRMIQHLLDRKNVCHLRIPLPLVKATCYIGQKWADISGTLTPLNLDKYAIIAQRNWRCDSSPIRAIGFSPRYNLEQGLAETIRWARTTGQIREGHHHHHH”, the “soluble on expression in E. coli” value is listed as “soluble”.

“MSLSDELAKLVVEVTSPDGNIKAKLVAGEQLTVAFRPGTYARYDERGLEHQLSRLAMLAWTGYRRGFFEAKGRAEDISAKDAEKEHLNHWDANTRRYNEEMAQIVARGKSSGNVIRAQAKGLAFWKVEIRDGTLASMDEATFCAECVSVLAAVQRDSKNQEILLKDFYFGLNIPKSWRKKNPLRIERGVMD”: the “soluble on expression in E. coli” value is recorded as “not soluble”.

Take “MAHHHHHHSLEYNLTTTDVVMENVTAFWEEGFSKLFEKAKENNNNRKISNCDTSLFFSNLLLGTPVLKDISFKIERGQLLAVAGSTGAGKTSLLMMIMGELEPSEGKIKHSGRISFCSQYSWIMPGTIKDNIIFGVSYDEYRYRSVIKACQLEEDISKFSEKDNIVLGEGGITLSGGQRARISLARAVYKDADLYLLDSPFGYLDVLTEKEIFESCVCKLMANKTRILVTSKMEHLKKADKILILHEGSVYFYGTFSELQNQRPDFSSKLMGCDTFDQFTAERRNSIITETLRRFSLEGDTSV”: the “soluble on expression in E. coli” value was “soluble”.

“SNAMIVGIGIDIIELNRIEKMLDGKLKFMERILTENERNVAKGLKGSRLTEFVAGRFAAKEAYSKAVGTGIGKEVSFLDIEVRNDDRGKPILITSTEHIVHLSISHSKEFAVAQVVLESSSS”: the “soluble on expression in E. coli” value is “soluble”.

With “MEPPLILIVEDEKDIARFIELELQAEGYRTEVAHDGITGLSKFREVSPNLVILDLMLPVMDGIEVAKRIRKTSNVPILILTAKDRVEDKVAGLDAGADDYLVKPFSIEELLARVRAHLRRVTPAITGEIRVADLIINLEGREVFRGNRRIELSNKEFELLELLAKNPGKVFSRYEIEEKVWPGYQGGSNVVDVYIGYLRKKLEAGGERRLIHTVRGVGYVLRED”, the “soluble on expression in E. coli” value was “soluble”.

Take “VFIDESKEHLQTCNEKLLLLEKDPTDLQLVHDIFRAAHTLKGMSATMGYTDLAHLTHLLENVLDAIRNGDMEVTSDWLDILFEALDHLETMVQSIIDGGDGKRDISEVSAKLDVNGAHAESAASAEPAEAQSSASDWEYDEFERTVIQEAEEQGFKRYEIKISLNENCMLKAVRVYMVFEKLNEVGEVAKTIPSAEVLETEDFGTDFQVCFLTHQSAEDIEQLINGVSEIEHVEVIQGAPLTSAEKPEESKQEDSPAAAVPANEEKQKQPAKNDEQAKHSAGGSKTIRVNIDRLDSLMNLFEELVIDRGRLEQIAKELEHNELTETVERMTRISGDLQSIILNMRMVPVETVFNRFPRMIRQLQKELNKKIELSIIGAETELDRTVIDEIGDPLVHLIRNSIDHGIEAPETRLQKGKPESGKVVLKAYHSGNHVFIEVEDDGAGLNRKKILEKPLERVITEKEAETLEDNQIYELIFAPGFSTADQISDISGRGVGLDVVKNKLESLGGSVSVKSAEGQGSLFSIQLPLTLSIISVLLIKLEEETFAIPISSIIETAVIDRKDILQTHDREVIDFRGHIVPVVYLKEEFKIEDTRKDAEQLHIIVVKKGDKPTAFVVDSFIGQQEVVLKSLGDYLTNVFAISGATILGDGEVALIID”: the “soluble on expression in E. coli” value is recorded as “not soluble”.

Regarding “MAIQGSRTEGLGGYTFDDLAVVMGTYNEEEAIGTVLDDIATVTDGRAEVICVDGSSDRTPEIARDHGATVIEQEPQGYGVAVREAVLTPDRPVVVTTDCDDTYPMERLPDFLAEINDGADVVSGDRLYYGAEQMPAMNKLGNELFALLASVLMGKRVHDTTTGMRAYRREVLQKIVWTENTGLSAELLMRPLMRGYDVRERPIEYDERKGETKLDPFSGGAAIAKSIVRVALEERFRLEHHHHHH”, the “soluble on expression in E. coli” value is on record as “soluble”.

As to “MSRNQIYITQEQFDFFCQTQRPYEGFVEGVGYAFVHRGFVNPHANRPTNPFRQTKGYVLPFKQQLIEVSPDLIANSLKCNKTTDTPQEAPERDSRYLGERFYTKDGRYVYIGTMSGGWVCYDRSGNRILEQLPEIIVYSSKEPGRSIIGTGKD”, the “soluble on expression in E. coli” value is “not soluble”.

Take “ADQPIDADVTVIGSGPGGYVAAIKAAQLGFKTVCIEKNETLGGTCLNVGCIPSKALLNNSHYYHMAHGTDFASRGIEMSEVRLNLDKMMEQKSTAVKALTGGIAHLFKQNKVVHVNGYGKITGKNQVTATKADGGTQVIDTKNILIATGSEVTPFPGITIDEDTIVSSTGALSLKKVPEKMVVIGAGVIGVELGSVWQRLGADVTAVEFLGHVGGVGIDMEISKNFQRILQKQGFKFKLNTKVTGATKKSDGKIDVSIEAASGGKAEVITCDVLLVCIGRRPFTKNLGLEELGIELDPRGRIPVNTRFQTKIPNIYAIGDVVAGPMLAHKAEDEGIICVEGMAGGAVHIDYNCVPSVIYTHPEVAWVGKSEEQLKEEGIEYKVGKFPFAANSRAKTNADTDGMVKILGQKSTDRVLGAHILGPGAGEMVNEAALALEYGASCEDIARVCHAHPTLSEAFREANLAASFGKSINF”: the “soluble on expression in E. coli” value is reported as “soluble”.

“MKNFMKYLEVSKEVKEALENNKPVVALESTIISHGMPFPQNYETALKVEKVIREAGAIPATIAILDGKLKVGLSAEEIEFLGKEGSKIIKVSRRDLPYIVANKLNGATTVATTMIVAEMAGVKVFATGGIGGVHRGAETTMDISADLEELSNTNVAVICAGAKSILDLGLTLEYLETHGVPVLGYQTKKLPAFFTRESEFDLDYKIDTPKELADIITAKWEMGLNGGVVIANPIPVEYSMDYDEISKSIEEAVKEAEAKGIKGKESTPFLLAKIKEITKGKSLEANIQLVYNNAKLASEIAGNMK”: the “soluble on expression in E. coli” value is reported as “not soluble”.

Turning to “MGSDKIHHHHHHMIAGVPSVHPLPNMNHVEVKGVDLPAQIAQQVRKLINRGTLAPGLQLRQSDLADRFGISRVPVREALKLLAAEGIIEHDPNRGFFVAPLSTDEARQLYRYRFLLERELLKTVEWPDSTQMKALKAMLERLDSYLDSGQRAEWIDEYQDFYALLFDLSPDKILRREAIRLIRLTDRYRALASEVRVPGEQRTAHLEHTLLAAMSKRDRAQLIRGFEREREKILASMLARIDARGL”, the “soluble on expression in E. coli” value was “not soluble”.

As to “SLGSDADSAGSLIQPMQIPGIIMPGLRRLTIRDLLAQGRTSSNALEYVREEVFTNNADVVAEKALKPESDITFSKQTANVKTIAHWVQASRQVMDDAPMLQSYINNRLMYGLALKEEGQLLNGDGTGDNLEGLNKVATAYDTSLNATGDTRADIIAHAIYQVTESEFSASGIVLNPRDWHNIALLKDNEGRYIFGGPQAFTSNIMWGLPVVPTKAQAAGTFTVGGFDMASQVWDRMDATVEVSREDRDNFVKNMLTILCEERLALAHYRPTAIIKGTFSSGS”, the “soluble on expression in E. coli” value was “soluble”.

“MAHHHHHHVDDDDKPGPALYEENALKGKIDDPNSYVPDAVQEAYKNLDSTSTLTEENFGKPYISAKDLKEIMYDHLPGFGTAFHQLVQVICKIGKDNNLLDTIHAEFQASLADGDSPQCALIQITKRVPIFQDVPPPIIHIRSRGDIPRACQKSLRPAPPSPKIDRGWVCLFKMQDGKTLGLKI”: the “soluble on expression in E. coli” value was “soluble”.

As to “GAMAMPMIEYLERFSLKAKINNTTNLDYSRRFLEPFLRGINVVYTPPQSFQSAPRVYRVNGLSRAPASSETFEHDGKKVTIASYFHSRNYPLKFPQLHCLNVGSSIKSILLPIELCSIEEGQALNRKDGATQVANMIKYAATS”, the “soluble on expression in E. coli” value is recorded as “soluble”.

For the sequence “MSLQESLQDRLAQVVELLHRHKVVEDLTHRQEGQHHDRVENLVHRQNLVELQRKLEELHPADIAHILESLPLDDRLTVWQLVKSEDDGDILLEVSDAVRETLIADMDDHEIIAATKDLDADELADLAPELPRDVVHELMESLDAQQRERVRSALSYEEDQVGALMDFEMVTIREDVSLEVVLRYLRRLKELPGHTDKLFVVDYDGVLKGVLPIKRLLVNDPDKQVLEVMATDPVTFHPDEDGYDAAQAFERYDLISAPVVDKGGKLIGRLTIDEMVDLIREESESEVLNMAGLREEEDIFASVWEGHHHHHH”, the “soluble on expression in E. coli” value is reported as “soluble”.

With “MSLKYKRIVFKVGTSSITHSDGSLSRGKIQTITCQLAALHHAGHELVLVSSGAVAAGFGALGFKKRPVKIADKQASAAVGQGLLMEEYTANLSSDGIVSAQILLSRADFADKRRYQNAGGALSVLLQRRAVPIINENDTVSVEELKIGDNDTLSAQVAAMIQADLLVLLTDIDGLYTGNPNSNPDAVRLDKIEHINHEIIEMAGGSGSANGTGGMLTKIKAATIAAESGVPVYICSSLKPDALAEAAEHQADGSFFVPRAKGLRTQKQWLAFYSESRGSVYVDEGAEHALSEQGKSLLMSGIAGIEGHFSRMDTVTVYSKATKQPLGKGRVLFGSAAAEDLLKSRKAKGVFIHRDDWISITPEIRLLLTEFEGHHHHHH”, the “soluble on expression in E. coli” value was “soluble”.

Consider “MGKRMVVVGGVAGGASAAAKAKRENPELEVVVYEKSGWVSYGACGLPYVLSGEIPRLERLVARTPEEFRKQGVLVRTRHEVVDVDYELRTLTVHDHAEGRTFQDRFDHLVLATGARPSLPPIPGTEQEGVYTLRTMEDGERLLKALPQARRAAILGAGYIGLEAAEAFRKRGLQVTLLEAKDRPLPHWDPEVGALLKEELERHGVEVWTGVKVEAFRGMGRVEAVETSEGVVPADLVLLATGIRPNTELAQAMGVALGPTGAIATDERMRTNLEGVYAAGDVAESFHRVLKRPYWLPLGDVANKHGRTAGSVIAGREARFLGVVGTAIFKAFDLAVATTGLSLEGALKEGFWAKKVFIQSRDGAHYYPGSGPLWVELVYEEGTGRLLGGAVVARGHGALRIDVLAALLHREGSVEDLLALDLAYAPPFSPVWDPLLIAAQQAR”, for which the “soluble on expression in E. coli” value is reported as “soluble”.
